From patent publication US11590206B2, “Liquid pharmaceutical composition” (SANOFI, priority 2017, dated 2023)

Key:
Format in all cases: physicochemical
[1] = Small angle X-ray scattering (SAXS): oligomer size and shape; conditions: in the formulations
Protocol: SAXS measurements were performed at a synchrotron light source (DESY Hamburg). The scattering data from all samples were collected loading 20 microliters of solutions into the capillary and flowing the whole volume across the X-ray beam. Per each sample 20 frames of 0.045 s exposure were collected and, after a statistical consistency check, averaged. The corresponding signals collected for the placebo was then subtracted. Each sample measurement was repeated at least twice to ensure reproducibility.

[2] = FTIR spectroscopy: ratio of alpha and beta sheets; conditions: 5.0 mg/ml and 75 mg/mL named; phosphate buffer, m-cresol, sodium chloride (Table 2)
Protocol: The physical and chemical stability of the stored formulations is determined with the help of the following tests: • Dynamic light scattering (DLS) method was applied to access the subvisible particle size distribution • Fourier transform infrared spectroscopy (FTIR) to analyze the ratio of alpha and beta sheets • Chemical stability (purity and impurities), determined by HPLC • Proteins of high molecular weight, determined by HPSEC
FTIR spectroscopy is a suitable method for the determination of a protein's secondary structure. The vibration giving the most pronounced signal in FTIR spectroscopy is the C═O stretching vibration of amide groups resulting in a signal in the so-called amide I-region (1700-1600 cm^−1). This vibration is sensitive to the hydrogen-bonding pattern, dipole-dipole interactions and the geometry of the polypeptide backbone. […]
As a consequence, the individual component bands that represent the different structural elements, such as α-helices, β-sheets, turns and irregular structures are often not resolved and difficult to identify in the broad amide I-band contours of the experimentally obtained spectra. […] The absolute values for protein conformation determined by the chemometric method can therefore be systematically biased, however, the repeatability of results for samples of the same protein is usually in the range of +/−2%. […]

[3] = ThT assay: fibrillation tendency under thermal and mechanical stress
Protocol: Investigations were carried out to determine fibrillation tendencies under stress conditions using a ThT assay. […] Amyloid-like structures show a beta-sheet rich structure. Fibrillation of peptide solutions is induced by thermic and mechanical stress. Samples are stressed under defined conditions using Fluoroskan Ascent FL.
For the tests in Fluoroskan Ascent FL 200 μL sample were placed into 96 well microtiterplate PS, flat bottom, Greiner Fluotrac No. 655076. Plates were sealed with Scotch Tape (Quiagen). […] The kinetic was monitored by measuring fluorescence intensity every 20 minutes.
Solutions were transferred in 2 mL Eppendorf vials and 20 μL of a 10.1 mM ThT solution in H2O were added to 2 mL of peptide solution to receive a final concentration of 100 μM ThT. For each sample eight replicates were tested.

[4] = Rheology with rotation and capillary rheometer; conditions: Table 2 composition, 5.0 mg/ml; shear rates>1/s
Protocol: To this end, a composition as described above in Table 2 containing 5.0 mg/ml SEQ ID NO.: 2 was added to a rheometer and subjected to measurement. The experiments were performed with a MCR rotation rheometer (Anton Paar) and with capillary rheometer Kinexus (Malvern). […] High shear rates have no influence on the shear viscosity of the formulation (see also FIG. 7).

With “H-dSer-Q-G-T-F-T-S-D-L-S-K-Q-K(γE-x53)-ESKAAQDFIEWLKAGGPSSGAPPPS-NH2 (HXQGTFTSDLSKQKESKAAQDFIEWLKAGGPSSGAPPPS; D-Ser1, K14 gammaE-palmitoyl lipidation, C-terminal amide; Exendin-4 analogue; MOD_RES (2)..(2) Xaa is a D-Ser; MOD_RES (14)..(14) Lys is functionalized at the amino side chain group as Lys((S)-4-carboxy-4-hexadecanoylamino-butyryl); MOD_RES (39)..(39) Ser is modified with an NH2 group) [SEQ ID NO.: 2, γE-x53 is (S)-4-Carboxy-4-hexadecanoylamino-butyryl-]” the “Oligomeric state (best fit of SAXS curve)” value [1] was “all hexameric”, the “measured value of alpha sheets (FTIR)” value [2] was 48.9% and the “measured value of beta sheets (FTIR)” value [2] was 13.1%. For the same substance, the “Fibrillation (ThT fluorescence)” value ([3]; 1 mg/ml in PBS, 100 h incubation at +37° C. and 500 rpm) was “negligible fibrillation”, the “Fibrillation (ThT fluorescence)” value ([3]; 5 mg/mL in phosphate buffer, NaCl and m-cresol, pH≈6.6, 100 hours at 37° C. shaking (500 rpm)) was “no fibrillation was observed” and the “fluid property (shear stress, viscosity vs shear rate)” value [4] was “Newtonian fluid”.
